# Measurements: the RNAGym collection of RNA variant scans (doi:10.1021/acssynbio.7b00057)
# B1: Pistol ribozyme (parent)
# chain: GGGUCGUUGUUCCAUAAUCGCGUGGAUAUGGCACGCAAGUUUCUACCGGGCACCGUAAAUGUCCGACUGGAGCCGUUCGGGCGGCUAUAAACAGACCUCAGGCCCGAAGCGUGGCGGCACCUGCCGCCGGUGGUAAAAAAGAUCGGAAGAGCACACGUCU
# Variants of: B1
# Assay: aptazyme ON/OFF ratio, guanine; higher = stronger switching; co-transcriptional cleavage with and without guanine
row,Variant,aptazyme ON/OFF ratio
1,GGGUCGACUGUCAAUAAUCGCGUGGAUAUGGCACGCAAGUUUCUACCGGGCACCGUAAAUGUCCGACUGGAGCCGUUCGGGCGGCUAUAAACAGACCUCAGGCCCGAAGCGUGGCGGCACCUGCCGCCGGUGGUAAAAAAGAUCGGAAGAGCACACGUCU [U7A U8C G9U U10G C13A],1.34
2,GGGUCGAUGUCCUAUAAUCGCGUGGAUAUGGCACGCAAGUUUCUACCGGGCACCGUAAAUGUCCGACUGGAGCCGUUCGGGCGGCUAUAAACAGACCUCAGGCCCGAAGCGUGGCGGCACCUGCCGCCGGUGGUAAAAAAGAUCGGAAGAGCACACGUCU [U7A U11C C13U],1.21
3,GGGUCGAUGUCUGAUAAUCGCGUGGAUAUGGCACGCAAGUUUCUACCGGGCACCGUAAAUGUCCGACUGGAGCCGUUCGGGCGGCUAUAAACAGACCUCAGGCCCGAAGCGUGGCGGCACCUGCCGCCGGUGGUAAAAAAGAUCGGAAGAGCACACGUCU [U7A U11C C12U C13G],1.38
4,GGGUCGACAGCUUAUAAUCGCGUGGAUAUGGCACGCAAGUUUCUACCGGGCACCGUAAAUGUCCGACUGGAGCCGUUCGGGCGGCUAUAAACAGACCUCAGGCCCGAAGCGUGGCGGCACCUGCCGCCGGUGGUAAAAAAGAUCGGAAGAGCACACGUCU [U7A U8C G9A U10G U11C C12U C13U],1.16
5,GGGUCGGACCAGUAUAAUCGCGUGGAUAUGGCACGCAAGUUUCUACCGGGCACCGUAAAUGUCCGACUGGAGCCGUUCGGGCGGCUAUAAACAGACCUCAGGCCCGAAGCGUGGCGGCACCUGCCGCCGGUGGUAAAAAAGAUCGGAAGAGCACACGUCU [U7G U8A G9C U10C U11A C12G C13U],1.09
6,GGGUCGGUUGGAGAUAAUCGCGUGGAUAUGGCACGCAAGUUUCUACCGGGCACCGUAAAUGUCCGACUGGAGCCGUUCGGGCGGCUAUAAACAGACCUCAGGCCCGAAGCGUGGCGGCACCUGCCGCCGGUGGUAAAAAAGAUCGGAAGAGCACACGUCU [U7G G9U U10G U11G C12A C13G],1.07
7,GGGUCGGGCCCAAAUAAUCGCGUGGAUAUGGCACGCAAGUUUCUACCGGGCACCGUAAAUGUCCGACUGGAGCCGUUCGGGCGGCUAUAAACAGACCUCAGGCCCGAAGCGUGGCGGCACCUGCCGCCGGUGGUAAAAAAGAUCGGAAGAGCACACGUCU [U7G U8G G9C U10C U11C C12A C13A],1.05
8,GGGUCGCAGGCCGAUAAUCGCGUGGAUAUGGCACGCAAGUUUCUACCGGGCACCGUAAAUGUCCGACUGGAGCCGUUCGGGCGGCUAUAAACAGACCUCAGGCCCGAAGCGUGGCGGCACCUGCCGCCGGUGGUAAAAAAGAUCGGAAGAGCACACGUCU [U7C U8A U10G U11C C13G],1.08
9,GGGUCGAUCUUUUAUAAUCGCGUGGAUAUGGCACGCAAGUUUCUACCGGGCACCGUAAAUGUCCGACUGGAGCCGUUCGGGCGGCUAUAAACAGACCUCAGGCCCGAAGCGUGGCGGCACCUGCCGCCGGUGGUAAAAAAGAUCGGAAGAGCACACGUCU [U7A G9C C12U C13U],1.1
10,GGGUCGCGUUCUGAUAAUCGCGUGGAUAUGGCACGCAAGUUUCUACCGGGCACCGUAAAUGUCCGACUGGAGCCGUUCGGGCGGCUAUAAACAGACCUCAGGCCCGAAGCGUGGCGGCACCUGCCGCCGGUGGUAAAAAAGAUCGGAAGAGCACACGUCU [U7C U8G G9U U11C C12U C13G],1.07
11,GGGUCGGAUUCUCAUAAUCGCGUGGAUAUGGCACGCAAGUUUCUACCGGGCACCGUAAAUGUCCGACUGGAGCCGUUCGGGCGGCUAUAAACAGACCUCAGGCCCGAAGCGUGGCGGCACCUGCCGCCGGUGGUAAAAAAGAUCGGAAGAGCACACGUCU [U7G U8A G9U U11C C12U],1.19
12,GGGUCGCACCCCGAUAAUCGCGUGGAUAUGGCACGCAAGUUUCUACCGGGCACCGUAAAUGUCCGACUGGAGCCGUUCGGGCGGCUAUAAACAGACCUCAGGCCCGAAGCGUGGCGGCACCUGCCGCCGGUGGUAAAAAAGAUCGGAAGAGCACACGUCU [U7C U8A G9C U10C U11C C13G],1
13,GGGUCGUGUACAAAUAAUCGCGUGGAUAUGGCACGCAAGUUUCUACCGGGCACCGUAAAUGUCCGACUGGAGCCGUUCGGGCGGCUAUAAACAGACCUCAGGCCCGAAGCGUGGCGGCACCUGCCGCCGGUGGUAAAAAAGAUCGGAAGAGCACACGUCU [U8G G9U U10A U11C C12A C13A],1.1
14,GGGUCGGACAACGAUAAUCGCGUGGAUAUGGCACGCAAGUUUCUACCGGGCACCGUAAAUGUCCGACUGGAGCCGUUCGGGCGGCUAUAAACAGACCUCAGGCCCGAAGCGUGGCGGCACCUGCCGCCGGUGGUAAAAAAGAUCGGAAGAGCACACGUCU [U7G U8A G9C U10A U11A C13G],1.04
15,GGGUCGCCAUCAGAUAAUCGCGUGGAUAUGGCACGCAAGUUUCUACCGGGCACCGUAAAUGUCCGACUGGAGCCGUUCGGGCGGCUAUAAACAGACCUCAGGCCCGAAGCGUGGCGGCACCUGCCGCCGGUGGUAAAAAAGAUCGGAAGAGCACACGUCU [U7C U8C G9A U11C C12A C13G],1.19
16,GGGUCGAAACCGUAUAAUCGCGUGGAUAUGGCACGCAAGUUUCUACCGGGCACCGUAAAUGUCCGACUGGAGCCGUUCGGGCGGCUAUAAACAGACCUCAGGCCCGAAGCGUGGCGGCACCUGCCGCCGGUGGUAAAAAAGAUCGGAAGAGCACACGUCU [U7A U8A G9A U10C U11C C12G C13U],1
17,GGGUCGGGAUUAAAUAAUCGCGUGGAUAUGGCACGCAAGUUUCUACCGGGCACCGUAAAUGUCCGACUGGAGCCGUUCGGGCGGCUAUAAACAGACCUCAGGCCCGAAGCGUGGCGGCACCUGCCGCCGGUGGUAAAAAAGAUCGGAAGAGCACACGUCU [U7G U8G G9A C12A C13A],1.32
18,GGGUCGCGUUUGUAUAAUCGCGUGGAUAUGGCACGCAAGUUUCUACCGGGCACCGUAAAUGUCCGACUGGAGCCGUUCGGGCGGCUAUAAACAGACCUCAGGCCCGAAGCGUGGCGGCACCUGCCGCCGGUGGUAAAAAAGAUCGGAAGAGCACACGUCU [U7C U8G G9U C12G C13U],1.28

row,Variant,aptazyme ON/OFF ratio
1,GGGUCGUUCAGGCAUAAUCGCGUGGAUAUGGCACGCAAGUUUCUACCGGGCACCGUAAAUGUCCGACUGGAGCCGUUCGGGCGGCUAUAAACAGACCUCAGGCCCGAAGCGUGGCGGCACCUGCCGCCGGUGGUAAAAAAGAUCGGAAGAGCACACGUCU [G9C U10A U11G C12G],1.23
2,GGGUCGCUUGGCGAUAAUCGCGUGGAUAUGGCACGCAAGUUUCUACCGGGCACCGUAAAUGUCCGACUGGAGCCGUUCGGGCGGCUAUAAACAGACCUCAGGCCCGAAGCGUGGCGGCACCUGCCGCCGGUGGUAAAAAAGAUCGGAAGAGCACACGUCU [U7C G9U U10G U11G C13G],1.1
3,GGGUCGGUACCACAUAAUCGCGUGGAUAUGGCACGCAAGUUUCUACCGGGCACCGUAAAUGUCCGACUGGAGCCGUUCGGGCGGCUAUAAACAGACCUCAGGCCCGAAGCGUGGCGGCACCUGCCGCCGGUGGUAAAAAAGAUCGGAAGAGCACACGUCU [U7G G9A U10C U11C C12A],1.26
4,GGGUCGGUACACGAUAAUCGCGUGGAUAUGGCACGCAAGUUUCUACCGGGCACCGUAAAUGUCCGACUGGAGCCGUUCGGGCGGCUAUAAACAGACCUCAGGCCCGAAGCGUGGCGGCACCUGCCGCCGGUGGUAAAAAAGAUCGGAAGAGCACACGUCU [U7G G9A U10C U11A C13G],1.09
5,GGGUCGACAUUAUAUAAUCGCGUGGAUAUGGCACGCAAGUUUCUACCGGGCACCGUAAAUGUCCGACUGGAGCCGUUCGGGCGGCUAUAAACAGACCUCAGGCCCGAAGCGUGGCGGCACCUGCCGCCGGUGGUAAAAAAGAUCGGAAGAGCACACGUCU [U7A U8C G9A C12A C13U],1.16
6,GGGUCGAGAAUACAUAAUCGCGUGGAUAUGGCACGCAAGUUUCUACCGGGCACCGUAAAUGUCCGACUGGAGCCGUUCGGGCGGCUAUAAACAGACCUCAGGCCCGAAGCGUGGCGGCACCUGCCGCCGGUGGUAAAAAAGAUCGGAAGAGCACACGUCU [U7A U8G G9A U10A C12A],1.3
7,GGGUCGGGUUCGGAUAAUCGCGUGGAUAUGGCACGCAAGUUUCUACCGGGCACCGUAAAUGUCCGACUGGAGCCGUUCGGGCGGCUAUAAACAGACCUCAGGCCCGAAGCGUGGCGGCACCUGCCGCCGGUGGUAAAAAAGAUCGGAAGAGCACACGUCU [U7G U8G G9U U11C C12G C13G],1.17
8,GGGUCGCCGGUCUAUAAUCGCGUGGAUAUGGCACGCAAGUUUCUACCGGGCACCGUAAAUGUCCGACUGGAGCCGUUCGGGCGGCUAUAAACAGACCUCAGGCCCGAAGCGUGGCGGCACCUGCCGCCGGUGGUAAAAAAGAUCGGAAGAGCACACGUCU [U7C U8C U10G C13U],1.12
9,GGGUCGCUCCACUAUAAUCGCGUGGAUAUGGCACGCAAGUUUCUACCGGGCACCGUAAAUGUCCGACUGGAGCCGUUCGGGCGGCUAUAAACAGACCUCAGGCCCGAAGCGUGGCGGCACCUGCCGCCGGUGGUAAAAAAGAUCGGAAGAGCACACGUCU [U7C G9C U10C U11A C13U],1.03
10,GGGUCGUGAAAAUAUAAUCGCGUGGAUAUGGCACGCAAGUUUCUACCGGGCACCGUAAAUGUCCGACUGGAGCCGUUCGGGCGGCUAUAAACAGACCUCAGGCCCGAAGCGUGGCGGCACCUGCCGCCGGUGGUAAAAAAGAUCGGAAGAGCACACGUCU [U8G G9A U10A U11A C12A C13U],1.26
11,GGGUCGGGAAGCCAUAAUCGCGUGGAUAUGGCACGCAAGUUUCUACCGGGCACCGUAAAUGUCCGACUGGAGCCGUUCGGGCGGCUAUAAACAGACCUCAGGCCCGAAGCGUGGCGGCACCUGCCGCCGGUGGUAAAAAAGAUCGGAAGAGCACACGUCU [U7G U8G G9A U10A U11G],2.19
12,GGGUCGCGACUUUAUAAUCGCGUGGAUAUGGCACGCAAGUUUCUACCGGGCACCGUAAAUGUCCGACUGGAGCCGUUCGGGCGGCUAUAAACAGACCUCAGGCCCGAAGCGUGGCGGCACCUGCCGCCGGUGGUAAAAAAGAUCGGAAGAGCACACGUCU [U7C U8G G9A U10C C12U C13U],1.1
13,GGGUCGGUACUUAAUAAUCGCGUGGAUAUGGCACGCAAGUUUCUACCGGGCACCGUAAAUGUCCGACUGGAGCCGUUCGGGCGGCUAUAAACAGACCUCAGGCCCGAAGCGUGGCGGCACCUGCCGCCGGUGGUAAAAAAGAUCGGAAGAGCACACGUCU [U7G G9A U10C C12U C13A],1.18
14,GGGUCGAAGCUCUAUAAUCGCGUGGAUAUGGCACGCAAGUUUCUACCGGGCACCGUAAAUGUCCGACUGGAGCCGUUCGGGCGGCUAUAAACAGACCUCAGGCCCGAAGCGUGGCGGCACCUGCCGCCGGUGGUAAAAAAGAUCGGAAGAGCACACGUCU [U7A U8A U10C C13U],1.98
15,GGGUCGAAUGAUUAUAAUCGCGUGGAUAUGGCACGCAAGUUUCUACCGGGCACCGUAAAUGUCCGACUGGAGCCGUUCGGGCGGCUAUAAACAGACCUCAGGCCCGAAGCGUGGCGGCACCUGCCGCCGGUGGUAAAAAAGAUCGGAAGAGCACACGUCU [U7A U8A G9U U10G U11A C12U C13U],1.13
16,GGGUCGUUCCCGGAUAAUCGCGUGGAUAUGGCACGCAAGUUUCUACCGGGCACCGUAAAUGUCCGACUGGAGCCGUUCGGGCGGCUAUAAACAGACCUCAGGCCCGAAGCGUGGCGGCACCUGCCGCCGGUGGUAAAAAAGAUCGGAAGAGCACACGUCU [G9C U10C U11C C12G C13G],1.05
17,GGGUCGUAAGAAAAUAAUCGCGUGGAUAUGGCACGCAAGUUUCUACCGGGCACCGUAAAUGUCCGACUGGAGCCGUUCGGGCGGCUAUAAACAGACCUCAGGCCCGAAGCGUGGCGGCACCUGCCGCCGGUGGUAAAAAAGAUCGGAAGAGCACACGUCU [U8A G9A U10G U11A C12A C13A],1.19
18,GGGUCGCUAUCCCAUAAUCGCGUGGAUAUGGCACGCAAGUUUCUACCGGGCACCGUAAAUGUCCGACUGGAGCCGUUCGGGCGGCUAUAAACAGACCUCAGGCCCGAAGCGUGGCGGCACCUGCCGCCGGUGGUAAAAAAGAUCGGAAGAGCACACGUCU [U7C G9A U11C],1.05
